Source: the RNAGym collection of RNA variant scans (doi:10.1073/pnas.2313332121)
This sample holds only a part of the variants without activity.

B1: TPR 5TU (parent)
chain: GGAUCUUCUCGAUCUAACAAAAAAGACAAAUCUGCCACAAAGCUUGAGAGCAUCUUCGGAUGCAGAGGCGGCAGCCUUCGGUGGCGCGAUAGCGCCAACGUUCUCAACUAUGACACGCAAAACGCGUGCUCCGUUGAAUGGAGUUUAUCAUG

Variants of: B1
Experiment: polymerase ribozyme fitness, log enrichment relative to wild type (log ratio); higher = more active; in vitro selection for triplet polymerase activity
In short: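 The heterodimeric triplet polymerase ribozyme's subunits were each mutagenized into PCR-built libraries and transcribed. Every library was selected once, in triplicate, by annealing with a biotinylated primer, the partner subunit and triplets, incubating frozen at −7 °C, gel-excising extended constructs, capturing on streptavidin beads and running RT-PCR. Input and output libraries were Illumina-sequenced, with genotypes kept only at ≥10 input reads and ≥1 read per output. Fitness, from inverse-variance-weighted replicate averages, is the base-2 logarithm of genotype enrichment over wild-type enrichment.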

Variant	polymerase ribozyme fitness (log ratio)
GGAUCUUCUCGAUCUAACAAAAAAGACAAAUCUGCCACAAAGCUUGAGAGCAUCUUCGGAUGCAGAGGCGGCAGCCUUCGGUGGCGCGAUAGCGCCAACGUUCUCAUCUAUGACACGCAAAACGCGUGCUCCCUUGAAUGGAGUUUAUCAUG [A107U G133C]	-3.72
GGAUCUUCUCGAUCUAACAAAAAAGACAAAUCUGCCACAAAGCUUGAGAGCAUCUUCGGAUGCAGAGGCGGCAGCCUUCGGUGGCGCGAUAGCGCCAACGUUCUCCACUAUGACACGCAAAACGGGUGCUCCGUUGAAUGGAGUUUAUCAUG [A106C C125G]	-1.27
GGAUCUUCUCGAUCUAACAAAAAAGACAAAUCUGCCACAAAGCUUGAGAGCAUCUUCGGAUGCAGAGGCGGCAGCCUUCGGUGGCGCGAUAGCGCCAACGUUCUCACCUAUGACACGCGAAACGAGUGCUCCGUUGAAUGGAGUUUAUCAUG [A107C A119G C125A]	≤ -4.2
GGAUCUUCUCGAUCUAACAAAAAAGACAAAUCUGCCACAAAGCUUGAGAGCAUCUUCGGAUGCAGAGGCGGCAGCCUUCGGUGGCGCGAUAGCGCCAACGUUCUCAGCUAUGACACGCAAAACGAGUGCUCCGUUGAAUGGAGUUUAUCAUG [A107G C125A]	-3.63
GGAUCUUCUCGAUCUAACAAAAAAGACAAAUCUGCCACAAAGCUUGAGAGCAUCUUCGGAUGCAGAGGCGGCAGCCUUCGGUGGCGCGAUAGCGCCAACGUUCUCAGCUAUGACACUCAAAACGCGUGCUCCGUUGAAUGGAGUUUAUCAUG [A107G G117U]	-4.04
GGAUCUUCUCGAUCUAACAAAAAAGACAAAUCUGCCACAAAGCUUGAGAGCAUCUUCGGAUGCAGAGGCGGCAGCCUUCGGUGGCGCGAUAGCGCCAACGUUCUCGACUAUGACACGCAAAACGCGUGCUCCGUUGAAUGUAGUUUAUCAUG [A106G G141U]	2.01
GGAUCUUCUCGAUCUAACAAAAAAGACAAAUCUGCCACAAAGCUUGAGAGCAUCUUCGGAUGCAGAGGCGGCAGCCUUCGGUGGCGCGAUAGCGCCAACGUUCUCGACUAUGACACGAAAAACGCGUGCUCCGUUGAAUGGAGUUUAUCAUG [A106G C118A]	-0.47
GGAUCUUCUCGAUCUAACAAAAAAGACAAAUCUGCCACAAAGCUUGAGAGCAUCUUCGGAUGCAGAGGCGGCAGCCUUCGGUGGCGCGAUAGCGCCAACGUUCUCAAUUAUGACACGCAAAACGCGUGCUCCGUUGAAUGUAGUUUAUCAUG [C108U G141U]	-3.1
GGAUCUUCUCGAUCUAACAAAAAAGACAAAUCUGCCACAAAGCUUGAGAGCAUCUUCGGAUGCAGAGGCGGCAGCCUUCGGUGGCGCGAUAGCGCCAACGUUCUCAUCUAUGACACGCAUAAAGCGUGCUCCGUUGAAUGGAGUUUAUCAUG [A107U A120U C123A]	-3.58
GGAUCUUCUCGAUCUAACAAAAAAGACAAAUCUGCCACAAAGCUUGAGAGCAUCUUCGGAUGCAGAGGCGGCAGCCUUCGGUGGCGCGAUAGCGCCAACGUUCUCCACUAUGACUCGCACAACGCGUGCUCCGUUCAAUGGAGUUUAUCAUG [A106C A115U A120C G136C]	-3.11
GGAUCUUCUCGAUCUAACAAAAAAGACAAAUCUGCCACAAAGCUUGAGAGCAUCUUCGGAUGCAGAGGCGGCAGCCUUCGGUGGCGCGAUAGCGCCAACGUUCUCCGCUAUGACACGCAAAACGCGUGCUCCGUUGAAUGGAGUUUAUCAUG [A106C A107G]	-4.18
GGAUCUUCUCGAUCUAACAAAAAAGACAAAUCUGCCACAAAGCUUGAGAGCAUCUUCGGAUGCAGAGGCGGCAGCCUUCGGUGGCGCGAUAGCGCCAACGUUCUCAACCAUGACAUGCAAAACGCGUGCUUCGUUGAAUGGAGUUUUUCAUG [U109C C116U C131U A147U]	-1.68
GGAUCUUCUCGAUCUAACAAAAAAGACAAAUCUGCCACAAAGCUUGAGAGCAUCUUCGGAUGCAGAGGCGGCAGCCUUCGGUGGCGCGAUAGCGCCAACGUUCUCGACUAUGACACGCCAAACGUGUGCUCCGUUGAAUGGAGUUUAUCAUG [A106G A119C C125U]	-0.389
GGAUCUUCUCGAUCUAACAAAAAAGACAAAUCUGCCACAAAGCUUGAGAGCAUCUUCGGAUGCAGAGGCGGCAGCCUUCGGUGGCGCGAUAGCGCCAACGUUCUCCACGAUGACACGCAAAACGCGUGCUCCGUUGAAUGGAGUUUAUCAUG [A106C U109G]	-0.424
GGAUCUUCUCGAUCUAACAAAAAAGACAAAUCUGCCACAAAGCUUGAGAGCAUCUUCGGAUGCAGAGGCGGCAGCCUUCGGUGGCGCGAUAGCGCCAACGUUCUCAACGAUGACACGCAAAACGCGUGCUCCGUUGAAUGGAGUUUAUCACG [U109G U151C]	-3.91
GGAUCUUCUCGAUCUAACAAAAAAGACAAAUCUGCCACAAAGCUUGAGAGCAUCUUCGGAUGCAGAGGCGGCAGCCUUCGGUGGCGCGAUAGCGCCAACGUUCUCAACGAUGACAUGCAAAACGCGUGCUCCGUUGAAUGGAGUUUAUCAUG [U109G C116U]	-1.39
GGAUCUUCUCGAUCUAACAAAAAAGACAAAUCUGCCACAAAGCUUGAGAGCAUCUUCGGAUGCAGAGGCGGCAGCCUUCGGUGGCGCGAUAGCGCCAACGUUCUCACCUAUGACACGCAAAACGCGUGCUCCGUUGAAUGGAGUUUUUCAUG [A107C A147U]	-3.71
GGAUCUUCUCGAUCUAACAAAAAAGACAAAUCUGCCACAAAGCUUGAGAGCAUCUUCGGAUGCAGAGGCGGCAGCCUUCGGUGGCGCGAUAGCGCCAACGUUCUCAAUUAUGACACGCAAAACGCGUGCUCCGUUGAAUGGAGUUUAUCAUG [C108U]	-2.43
GGAUCUUCUCGAUCUAACAAAAAAGACAAAUCUGCCACAAAGCUUGAGAGCAUCUUCGGAUGCAGAGGCGGCAGCCUUCGGUGGCGCGAUAGCGCCAACGUUCUCAACCAUGACACACAAAACGCGUGCUCCGUUGAAUGGAGUUAAUCAUG [U109C G117A U146A]	-3.86
